# Source: IntAct's records for PubMed 16292983
# B1: Ankyrin-2 (Homo sapiens), Q01484-2 (parent)
# chain: MMNEDAAQKSDSGEKFNGSSQRRKRPKKSDSNASFLRAARAGNLDKVVEYLKGGIDINTCNQNGLNALHLAAKEGHVGLVQELLGRGSSVDSATKKGNTALHIASLAGQAEVVKVLVKEGANINAQSQNGFTPLYMAAQENHIDVVKYLLENGANQSTATEDGFTPLAVALQQGHNQAVAILLENDTKGKVRLPALHIAARKDDTKSAALLLQNDHNADVQSKMMVNRTTESGFTPLHIAAHYGNVNVATLLLNRGAAVDFTARNGITPLHVASKRGNTNMVKLLLDRGGQIDAKTRDGLTPLHCAARSGHDQVVELLLERGAPLLARTKNGLSPLHMAAQGDHVECVKHLLQHKAPVDDVTLDYLTALHVAAHCGHYRVTKLLLDKRANPNARALNGFTPLHIACKKNRIKVMELLVKYGASIQAITESGLTPIHVAAFMGHLNIVLLLLQNGASPDVTNIRGETALHMAARAGQVEVVRCLLRNGALVDARAREEQTPLHIASRLGKTEIVQLLLQHMAHPDAATTNGYTPLHISAREGQVDVASVLLEAGAAHSLATKKGFTPLHVAAKYGSLDVAKLLLQRRAAADSAGKNGLTPLHVAAHYDNQKVALLLLEKGASPHATAKNGYTPLHIAAKKNQMQIASTLLNYGAETNIVTKQGVTPLHLASQEGHTDMVTLLLDKGANIHMSTKSGLTSLHLAAQEDKVNVADILTKHGADQDAHTKLGYTPLIVACHYGNVKMVNFLLKQGANVNAKTKNGYTPLHQAAQQGHTHIINVLLQHGAKPNATTANGNTALAIAKRLGYISVVDTLKVVTEEVTTTTTTITEKHKLNVPETMTEVLDVSDEEGDDTMTGDGGEYLRPEDLKELGDDSLPSSQFLDGMNYLRYSLEGGRSDSLRSFSSDRSHTLSHASYLRDSAVMDDSVVIPSHQVSTLAKEAERNSYRLSWGTENLDNVALSSSPIHSGFLVSFMVDARGGAMRGCRHNGLRIIIPPRKCTAPTRVTCRLVKRHRLATMPPMVEGEGLASRLIEVGPSGAQFLGKLHLPTAPPPLNEGESLVSRILQLGPPGTKFLGPVIVEIPHFAALRGKERELVVLRSENGDSWKEHFCDYTEDELNEILNGMDEVLDSPEDLEKKRICRIITRDFPQYFAVVSRIKQDSNLIGPEGGVLSSTVVPQVQAVFPEGALTKRIRVGLQAQPMHSELVKKILGNKATFSPIVTLEPRRRKFHKPITMTIPVPKASSDVMLNGFGGDAPTLRLLCSITGGTTPAQWEDITGTTPLTFVNECVSFTTNVSARFWLIDCRQIQESVTFASQVYREIICVPYMAKFVVFAKSHDPIEARLRCFCMTDDKVDKTLEQQENFAEVARSRDVEVLEGKPIYVDCFGNLVPLTKSGQHHIFSFFAFKENRLPLFVKVRDTTQEPCGRLSFMKEPKSTRGLVHQAICNLNITLPIYTKESESDQEQEEEIDMTSEKNPQDEQERIEERLAYIADHLGFSWTELARELDFTEEQIHQIRIENPNSLQDQSHALLKYWLERDGKHATDTNLVECLTKINRMDIVHLMETNTEPLQERISHSYAEIEQTITLDHSEGFSVLQEELCTAQHKQKEEQAVSKESETCDHPPIVSEEDISVGYSTFQDGVPKTEGDSSATALFPQTHKEQVQQDFSGKMQDLPEESSLEYQQEYFVTTPGTETSETQKAMIVPSSPSKTPEEVSTPAEEEKLYLQTPTSSERGGSPIIQEPEEPSEHREESSPRKTSLVIVESADNQPETCERLDEDAAFEKGDDMPEIPPETVTEEEYIDEHGHTVVKKVTRKIIRRYVSSEGTEKEEIMVQGMPQEPVNIEEGDGYSKVIKRVVLKSDTEQSEDNNE
# Variants of: B1
# Details: with nac1_human SLC8A1, P32418
row,effect of a mutation on the interaction,Variant
1,disrupting interaction,E1458G
